The record followed here is publication PMC4130638, “Structure of a Stapled Peptide Antagonist Bound to Nutlin-Resistant Mdm2” (PLoS ONE, 2014).

Positions of bridges follow the written chain, without caps; N, C: chain ends. Non-standard residues stand in square brackets, D forms with d. S8 = C=CCCCCCC[C@](C)(N)C(=O)O; S5 = C=CCCC[C@](C)(N)C(=O)O; FAM = carboxyfluorescein

Assay [1] deals with T1, Mdm2 (amino acids 6-125), wild type (UniProt Q00987 6-125).
T1 construct: Cloned in pGEX-6P-1; also called Mdm2 (6-125); wild-type Mdm2; source: E. coli BL21(DE3) pLysS, purified (GSTrap, on-column PreScission cleavage, Resource S cation exchange)
The assay is described as follows: not stated; Kds told in the discussion of the structures without method, construct or citation.

Assay [2] concerns the target T2, Mdm2-M62A (amino acids 6-125) (UniProt Q00987 6-125, M62A).
T2 construct: Made from the wild-type pGEX-6P-1 construct by QuickChange mutagenesis; also called Nutlin-resistant Mdm2; mutant Mdm2 (6-125); source: E. coli BL21(DE3) pLysS, purified (GSTrap, on-column PreScission cleavage, Resource S cation exchange)
The experiment in a line: fluorescence polarisation; competitive fluorescence anisotropy: M06 titrated against a constant 150 nM Mdm2 (6-125) wild type or M62A and 50 nM FAM-12-1 peptide; PBS pH 7.4, 3% DMSO, 0.1% Tween-20; apparent Kd; 3-5 titrations. Conditions: both partners purified. On the technique in general: Fluorescence polarisation rises when a labelled molecule tumbles more slowly, as on binding a larger partner.

In assay [3] the target is T1, Mdm2 (amino acids 6-125), wild type. The description is as above. The settings on record: both partners purified.

B1: M06 stapled peptide (peptide)
chain: Ac-TSF[S5]EYWYLL[S8]-NH2
modifications: staple 4-11
SMILES: CC(=O)N[C@H](C(=O)N[C@@H](CO)C(=O)N[C@@H](Cc1ccccc1)C(=O)N[C@@]1(C)CCCC=CCCCCCC[C@@](C)(C(N)=O)NC(=O)[C@H](CC(C)C)NC(=O)[C@H](CC(C)C)NC(=O)[C@H](Cc2ccc(O)cc2)NC(=O)[C@H](Cc2c[nH]c3ccccc23)NC(=O)[C@H](Cc2ccc(O)cc2)NC(=O)[C@H](CCC(=O)O)NC1=O)[C@@H](C)O
For the molecule B1, the Kd came out at 128 nM in assay [1], 63.1 ± 17.8 nM in assay [2] and 107 ± 47.9 nM in assay [3].

B2: carboxyfluorescein (FAM) labelled 12-1 peptide (peptide)
peptide: {FAM}-RFMDYWEGL-NH2
notes: 12-1 peptide, tracer of the fluorescence anisotropy assay
For B2, the binding result in assay [2] and in assay [3] was “binds” each time.
